Laboratory results as given in patent US20230312730A1 (ATYR PHARMA, published 2023).
Where a chain is given by its changes, count along the chain named. In names and notes the source's numbering stands. Several values for one entry are separate records, joined by “and”; a condition that tells them apart may be missing. Equal entries are not always repeated. Values belong to the molecule of their own block, whether it stands above or below them.

How the values were obtained:
[1] = target: human NRP2 endogenously expressed on cell lines (human) (UniProt O60462); assay: flow cytometry on A549 WT cells
[2] = target: T1, human NRP2 variant 2 (NM_003872) over-expressed on Expi293-hNRP2 clonal cells (human, UniProt O60462 23-931); assay: flow cytometry on Expi293-hNRP2 cells, 0.05-100 nM, rabbit anti-VEGF-C detection
T1 sequence: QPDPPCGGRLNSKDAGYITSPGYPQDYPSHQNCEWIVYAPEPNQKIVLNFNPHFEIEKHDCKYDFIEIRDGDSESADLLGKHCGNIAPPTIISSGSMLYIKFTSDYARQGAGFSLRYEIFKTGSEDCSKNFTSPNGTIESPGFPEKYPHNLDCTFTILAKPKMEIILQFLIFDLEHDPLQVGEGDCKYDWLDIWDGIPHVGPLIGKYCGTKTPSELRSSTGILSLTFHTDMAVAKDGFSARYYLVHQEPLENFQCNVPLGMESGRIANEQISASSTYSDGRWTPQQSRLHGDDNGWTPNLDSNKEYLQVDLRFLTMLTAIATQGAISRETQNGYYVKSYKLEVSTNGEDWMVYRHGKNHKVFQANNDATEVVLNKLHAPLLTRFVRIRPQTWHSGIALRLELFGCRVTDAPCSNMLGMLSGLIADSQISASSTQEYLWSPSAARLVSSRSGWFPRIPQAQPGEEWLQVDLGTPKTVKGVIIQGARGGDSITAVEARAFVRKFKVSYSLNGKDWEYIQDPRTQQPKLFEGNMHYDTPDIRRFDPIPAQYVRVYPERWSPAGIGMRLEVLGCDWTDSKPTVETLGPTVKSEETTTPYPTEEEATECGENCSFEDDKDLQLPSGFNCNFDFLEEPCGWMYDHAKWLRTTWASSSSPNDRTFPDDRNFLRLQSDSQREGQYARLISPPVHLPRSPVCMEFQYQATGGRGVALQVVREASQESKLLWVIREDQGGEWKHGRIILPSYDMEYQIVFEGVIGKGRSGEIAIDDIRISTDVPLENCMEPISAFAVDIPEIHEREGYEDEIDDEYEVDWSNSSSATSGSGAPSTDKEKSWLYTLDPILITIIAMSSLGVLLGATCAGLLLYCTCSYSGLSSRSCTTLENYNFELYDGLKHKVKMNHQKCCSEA
Description: (§1) To assess the ability of the anti-NRP2 antibodies to displace the binding of VEGF-C, Semaphorin 3F and HRS polypeptides, flow cytometry was used. Binding of recombinant human VEGF-C (R&D Cat#9199-VC-025, untagged), Sema3F-Fc (R&D Cat#9878-S3-025, Fc chimera protein) or Sema3F-p95m (prepared In-house), Myc-tagged Sema3F-p95 R583A R586A-1359) to Expi293-hNRP2 cells over expressing human NRP2 were determined by immunostaining assay as described in Example 4. Studies were conducted with cells incubated with each of these proteins at 0.05 - 100 nM at 3-fold dilutions on ice for 1 hour. Cells were then washed and stained with secondary and/or detection antibodies as described previously. […] Sema3F-Fc was detected by a Cy3-conjugated goat anti-human Fc IgG (Jackson ImmunoResearch Cat#109165098). Sema3F-p95m was detected by an AF555-conjugated anti-Myc antibody (ThermoFisher Cat#MA1980A555).
(§2) Binding curves were fit and EC₅₀ values determined as described above. VEGF-C was determined to bind to Expi293-hNRP2 cells with an EC₅₀ of 0.6 nM. Sema3F-Fc was determined to bind to Expi293-hNRP2 cells with an EC₅₀ of ^{~}8.2 nM, and Sema3F-p95m bound to Expi293-hNRP2 cells with an with EC₅₀ of 5.7 nM.

[3] = target: T1, human NRP2 variant 2 (NM_003872) …; assay: flow cytometry on Expi293-hNRP2 cells, 0.05-100 nM, anti-human Fc detection
Description: as §1, §2

[4] = target: T1, human NRP2 variant 2 (NM_003872) …; assay: flow cytometry on Expi293-hNRP2 cells, 0.05-100 nM, anti-Myc detection
Description: as §1, §2

- Fold change of a-NRP2 to Ctl (FC) [1]: 6 fold
Molecule: C9-PE Santa Cruz Biotech anti-NRP2 antibody

- Fold change of a-NRP2 to Ctl (FC) [1]: 2.6 fold and 1.8 fold
Molecule: C9-AF647 Santa Cruz Biotech anti-NRP2 antibody

- EC50 [2]: 0.6 nM
B1: recombinant human VEGF-C (R&D Systems #9199-VC) (ligand, UniProt P49767 103-227, looked up)
chain: TEETIKFAAAHYNTEILKSIDNEWRKTQCMPREVCIDVGKEFGVATNTFFKPPCVSVYRCGGCCNSEGLQCMNTSTSYLSKTLFEITVPLSQGPKPVTISFANHTSCRCMSKLDVYRQVHSIIRR
notes: Bought reagent

- EC50 [3]: ~8.2 nM
B2: Human SEMA3F-Fc (R&D Systems #9878-S3) (Fc fusion, UniProt Q13275 19-779, looked up)
chain: SFPTQDHLPATPRVRLSFKELKATGTAHFFNFLLNTTDYRILLKDEDHDRMYVGSKDYVLSLDLHDINREPLIIHWAASPQRIEECVLSGKDVNGECGNFVRLIQPWNRTHLYVCGTGAYNPMCTYVNRGRRAQATPWTQTQAVRGRGSRATDGALRPMPTAPRQDYIFYLEPERLESGKGKCPYDPKLDTASALINEELYAGVYIDFMGTDAAIFRTLGKQTAMRTDQYNSRWLNDPSFIHAELIPDSAERNDDKLYFFFRERSAEAPQSPAVYARIGRICLNDDGGHCCLVNKWSTFLKARLVCSVPGEDGIETHFDELQDVFVQQTQDVRNPVIYAVFTSSGSVFRGSAVCVYSMADIRMVFNGPFAHKEGPNYQWMPFSGKMPYPRPGTCPGGTFTPSMKSTKDYPDEVINFMRSHPLMYQAVYPLQRRPLVVRTGAPYRLTTIAVDQVDAADGRYEVLFLGTDRGTVQKVIVLPKDDQELEELMLEEVEVFKDPAPVKTMTISSKRQQLYVASAVGVTHLSLHRCQAYGAACADCCLARDPYCAWDGQACSRYTASSKRRSRRQDVRHGNPIRQCRGFNSNANKNAVESVQYGVAGSAAFLECQPRSPQATVKWLFQRDPGDRRREIRAEDRFLRTEQGLLLRALQLSDRGLYSCTATENNFKHVVTRVQLHVLGRDAVHAALFPPLSMSAPPPPGAGPPTPPYQELAQLLAQPEVGLIHQYCQGYWRHVPPSPREAPGAPRSPEPQDQKKPRNRR
notes: Bought reagent; not shown: Fc of the bought chimera (detected with anti-human Fc)

- EC50 [4]: 5.7 nM
B3: Sema3F-p95m (Myc-tagged Sema3F-p95 R583A R586A-1359) (ligand, UniProt Q13275 19-779, looked up)
chain: B2 chain with R565A, R568A
notes: not shown: Myc tag
